Test results as given in US9809653B2, “Anti-LAMP1 antibodies and antibody drug conjugates, and uses thereof” (SANOFI, priority 2012, dated 2017).

T1: LAMP1 expressed on the surface of advanced human primary colon tumor CR-IGR-034P (Homo sapiens, UniProt P11279)
T1 construct: endogenous in cells; host or cells: enzymatically dissociated patient-derived xenograft tumour cells (e.g. CR-IGR-034P, LUN-NIC-014P, BRE-IGR-0159) and tumour cell lines
T1 sequence (P11279 29-417): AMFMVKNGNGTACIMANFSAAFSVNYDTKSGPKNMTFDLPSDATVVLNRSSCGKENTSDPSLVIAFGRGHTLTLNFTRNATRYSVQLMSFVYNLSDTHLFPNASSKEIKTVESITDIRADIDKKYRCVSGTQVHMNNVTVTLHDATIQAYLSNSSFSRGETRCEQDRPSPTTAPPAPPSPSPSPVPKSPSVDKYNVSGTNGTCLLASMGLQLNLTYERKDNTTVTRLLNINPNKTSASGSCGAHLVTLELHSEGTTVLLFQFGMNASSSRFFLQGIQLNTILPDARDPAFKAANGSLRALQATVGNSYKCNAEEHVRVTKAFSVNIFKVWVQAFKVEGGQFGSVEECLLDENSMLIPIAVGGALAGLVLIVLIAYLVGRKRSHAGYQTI

T2: LAMP1 (SEQ ID NO: 28 protein) (Homo sapiens, UniProt P11279)
T2 construct: made in house; host or cells: HEK293 (293-F), transient expression, IMAC-purified
T2 sequence (P11279 with tags, fused parts or gaps): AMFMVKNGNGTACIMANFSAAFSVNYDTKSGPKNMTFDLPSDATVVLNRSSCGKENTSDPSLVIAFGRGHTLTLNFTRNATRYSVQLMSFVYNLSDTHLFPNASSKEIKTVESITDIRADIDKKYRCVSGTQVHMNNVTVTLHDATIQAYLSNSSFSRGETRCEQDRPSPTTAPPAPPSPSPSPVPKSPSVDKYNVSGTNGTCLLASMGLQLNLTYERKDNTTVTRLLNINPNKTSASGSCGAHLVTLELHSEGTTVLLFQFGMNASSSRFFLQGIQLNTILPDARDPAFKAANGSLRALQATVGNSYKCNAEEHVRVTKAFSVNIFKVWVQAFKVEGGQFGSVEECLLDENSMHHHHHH


Key:
[1] = biological target: T1, LAMP1 expressed on the surface of advanced human primary colon tumor CR-IGR-034P; assay: Apparent affinity to human primary colon tumor PDX by flow cytometry; assay type: binding; details: dissociated PDX tumor cells, 45 min at 4° C., read-out: EC50 obtained with CR-IGR-034P
Procedure: Advanced human primary colon tumor CR-IGR-034P was obtained from Patient-derived xenograft in mice. Tumor CR-IGR-034P was enzymatically dissociated using collagenase Type IV (Invitrogen; #17104-019) and deoxyribonuclease I (Invitrogen; #18047-019) for 1 h at 4° C. Cell viability was estimated by Viacount application using Guava® easyCyte™ 8HT Flow Cytometry System. […] 100 μL/well of goat anti-mouse IgG conjugated with Alexa647 (Invitrogen; #A2135) or goat anti-human IgG conjugated with Alexa488 (Invitrogen; #A11013) was added for 45 min at 4° C. and washed three times with PBS 1% BSA. The antibody binding was evaluated after centrifugation and resuspension of cells by adding 200 μl/well PBS 1% BSA and read using Guava® easyCyte™ 8HT Flow Cytometry System. EC50 values were estimated using BIOST@T-SPEED software. EC50 values obtained with the advanced human primary colon tumor CR-IGR-034P are listet in Table 3.

[2] = biological target: T2, LAMP1 (SEQ ID NO: 28 protein); assay: Affinity to LAMP1 by SPR (BIAcore 2000); assay type: binding
Procedure: The use of surface plasmon resonance to determine is known to the skilled in the art. In one example the binding kinetics of for example the murine, chimer or humanized anti-LAMP1 mAbs were determined by surface plasmon resonance assay using typically a BIAcore 2000 (BIAcore Inc., Uppsala, N.J.). Therefore, for example a CM5 BIAcore biosensor chip was docked into the instrument and activated with for example 70 μL of 1:1 NHS/EDC at room temperature. Typically, a mouse anti-αhuman Fc IgG1 (BIAcore #BR-1008-39) and rabbit anti-αmurine Fc IgG1 (BIAcore #BR-1008-38) (50 μg/mL in 1 M acetate buffer, pH5) were immobilized on the activated chips in all flow cells. The immobilization was carried out at a flow rate of for example 10 μL/min up to saturation. The chip was then blocked by for example injection of 70 μL of ethanolamine-HCl, pH 8.5, followed by one wash with 3 M MgCl2 for anti-αhuman Fc IgG1 and one wash with 10 mM Glycine-HCl pH 1.7 for anti-αmurine Fc IgG1. To measure the binding of for example anti-LAMP1 mAbs to LAMP1, antibodies were used at 1-5 μg/mL in BIAcore running buffer (HBS-EP). The antigen for example (Sequence ID No 28 protein produced as described in example 6.2) was injected from for example 1 to 256 nM. Following completion of the injection phase, dissociation was monitored in a BIAcore running buffer at the same flow rate for typically 600 sec. The surface was typically regenerated between injections using for example 2×5 μL 3 M MgCl2 (2×30 s) or anti-αhuman Fc IgG1 and 1×30 μL 10 mM Glycine-HCl pH 1.7 for anti-αmurine Fc IgG1 (180 s). Individual sensorgrams were typically analyzed using BIAevaluation software.
The binding kinetics of the murine, chimer or humanized anti-LAMP1 mAbs were determined by surface plasmon resonance assay using a BIAcore 2000 (BIAcore Inc., Uppsala, N.J.). Briefly, a CM5 BIAcore biosensor chip was docked into the instrument and activated with 70 μL of 1:1 NHS/EDC at room temperature. A mouse anti-αhuman Fc IgG1 (BIAcore #BR-1008-39) and rabbit anti-αmurine Fc IgG1 (BIAcore #BR-1008-38) (50 μg/mL in 1 M acetate buffer, pH5) were immobilized on the activated chips in all flow cells. The immobilization was carried out at a flow rate of 10 μL/min up to saturation. The chip was then blocked by injection of 70 μL of ethanolamine-HCl, pH 8.5, followed by one wash with 3 M MgCl2 for anti-αhuman Fc IgG1 and one wash with 10 mM Glycine-HCl pH 1.7 for anti-αmurine Fc IgG1. To measure the binding of anti-LAMP1 mAbs to LAMP1, antibodies were used at 1-5 μg/mL in BIAcore running buffer (HBS-EP). The antigen (SEQ ID NO: 28 protein produced as described in example 6.2) was injected from 1 to 256 nM. Following completion of the injection phase, dissociation was monitored in a BIAcore running buffer at the same flow rate for 600 sec. The surface was regenerated between injections using 2×5 μL 3 M MgCl2 (2×30 s) or anti-αhuman Fc IgG1 and 1×30 μL 10 mM Glycine-HCl pH 1.7 for anti-αmurine Fc IgG1 (180 s). Individual sensorgrams were analyzed using BIAevaluation software.

EC50 [1] [nM]	Kd [2] [nM]	ka [2] [M⁻¹ s⁻¹]	kd [2] [s⁻¹]	Molecule
14	63.5	63300	0.00402	MAb2: murine monoclonal anti-LAMP1 antibody, VH SEQ ID NO: 8, VL SEQ ID NO: 12 (antibody, V domains shown, antibod fragment; antibody fragment) VH: QVQLQQSAAELARPGASVKMSCKASGYTFTSYTMHWVKQRPGQGLEWIGYFNPSSGYPEYNQKFKDKTTLTADKSSNTAFIQLNSLTSEDSAVYYCSRGYYYGSRGYALDFWGQGASVTVSS VL: NIVLTQSPVSLAVSLGQRATISCRASESVDINGNTFMHWYQQKPGQSPKLVIYAASNIESGVPARFSGSGSSTDFTFTIDPVEADDVATYYCQQNIEDPWTFGGGTKVEIK
5	4.8	148000	0.00071	MAb1: murine monoclonal anti-LAMP1 antibody, VH SEQ ID NO: 1, VL SEQ ID NO: 5 (antibody, V domains shown, Antibody Fragment; antibody fragment) VH: QVQLQQSGAELVKPGASVKMSCKASGYIFTNYNIHWVKKSPGQGLEWIGAIYPGNGDAPYSQKFKDKATLTADKSSSTTYMQLSRLTSEDSAVYYCVRANWDVAFAYWGQGTLVSVSA VL: DIQMTQSPPSLSASLGGKVTITCKASQDIDRYMAWYQDKPGKGPRLLIHDTSTLQPGIPSRFSGSGSGRDYSFSISNLEPEDIATYYCLQYDNLWTFGGGTKLEIK
